Experimental data published in US20230340152A1 (published 2023).

Legend:
Test in all cases: SPR (ProteOn), CD73 variant immobilized on HTG chip
[1] = molecular target: T1, KO_Cterm CD73 chimera (human; chicken)
T1 construct: also called C-terminal domain-swapped CD73
T1 chain: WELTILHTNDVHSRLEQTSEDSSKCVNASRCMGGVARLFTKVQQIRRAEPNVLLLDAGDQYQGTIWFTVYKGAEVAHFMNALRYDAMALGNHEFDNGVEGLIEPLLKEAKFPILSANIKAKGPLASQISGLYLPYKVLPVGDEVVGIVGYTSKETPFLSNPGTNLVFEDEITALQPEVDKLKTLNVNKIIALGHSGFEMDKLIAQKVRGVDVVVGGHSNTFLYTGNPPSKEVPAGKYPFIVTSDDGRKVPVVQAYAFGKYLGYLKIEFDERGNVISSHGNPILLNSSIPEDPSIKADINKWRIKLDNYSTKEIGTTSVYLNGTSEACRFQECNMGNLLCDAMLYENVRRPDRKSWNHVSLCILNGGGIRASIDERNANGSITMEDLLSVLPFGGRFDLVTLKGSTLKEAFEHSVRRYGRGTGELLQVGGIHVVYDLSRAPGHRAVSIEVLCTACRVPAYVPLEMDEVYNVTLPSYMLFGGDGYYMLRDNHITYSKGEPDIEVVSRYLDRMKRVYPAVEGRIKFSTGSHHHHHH
Protocol: (§1) Binding of MEDI9447 to wild-type and mutant CD73 proteins was measured by surface plasmon resonance (SPR) using a ProteOn instrument (BioRad). CD73 crude cell supernatant protein samples were diluted to 3 µg/ml in PBS, 0.005% Tween-20, pH 7.4 (BioRad) and immobilized to ~400 RU on a HTG tris-NTA sensor chip (BioRad) pre-activated with 10 mM NiSO₄, 10 mM MES, pH 6.0 (BioRad). An equivalently diluted crude cell supernatant sample from non-transfected cells was included as a reference channel control. Sensorgrams were recorded by flowing two-fold dilutions of MEDI9447 prepared in PBS, 0.005% Tween-20, pH 7.4, ranging from 5 nM to 0.31 nM. […] Antibody binding was measured at a flow rate of 100 µL/min with a 3 min association phase and 20 min dissociation phase. The sensor chip surface was regenerated between each run by an 800 s injection of 300 mM EDTA, pH 8.5 (BioRad) at a flow rate of 30 µL/min. Binding kinetics were analyzed using the ProteOn data analysis software. Double referencing was performed and, unless noted otherwise, a 1:1 Langmuir binding model was utilized to fit the data. Some CD73 variants containing mutations within the amino acid region 171-188 fit poorly to a 1:1 model (i.e., Chi² values >10% of Rmax). Where noted, these variants were fit with a heterogenous antigen (2:1) model. […] Due to the assay format (antigen immobilized) and the dimeric state of CD73, KD values may be exaggerated due to avidity effects. However, it is not anticipated that this impacts ranking of MEDI9447 binding to the different CD73 variants.

[2] = molecular target: T2, Human CD73 V144K, His-tagged (human, UniProt P21589 27-549)
T2 sequence: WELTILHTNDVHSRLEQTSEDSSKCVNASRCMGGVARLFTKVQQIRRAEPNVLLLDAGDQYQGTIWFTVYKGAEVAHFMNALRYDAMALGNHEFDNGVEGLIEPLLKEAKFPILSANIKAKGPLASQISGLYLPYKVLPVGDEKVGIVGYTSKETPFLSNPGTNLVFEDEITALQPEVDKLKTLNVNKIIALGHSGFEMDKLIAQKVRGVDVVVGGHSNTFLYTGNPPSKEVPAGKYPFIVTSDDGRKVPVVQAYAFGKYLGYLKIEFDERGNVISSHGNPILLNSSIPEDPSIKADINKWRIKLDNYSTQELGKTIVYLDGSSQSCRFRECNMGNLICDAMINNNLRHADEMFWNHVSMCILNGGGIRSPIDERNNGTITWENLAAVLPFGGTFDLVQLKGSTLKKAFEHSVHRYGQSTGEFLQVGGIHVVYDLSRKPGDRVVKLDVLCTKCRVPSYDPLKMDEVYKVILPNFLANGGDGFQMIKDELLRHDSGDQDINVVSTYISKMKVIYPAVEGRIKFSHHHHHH
Protocol: as §1

[3] = molecular target: T3, Human CD73 K180A, His-tagged (human, UniProt P21589 27-549)
T3 sequence: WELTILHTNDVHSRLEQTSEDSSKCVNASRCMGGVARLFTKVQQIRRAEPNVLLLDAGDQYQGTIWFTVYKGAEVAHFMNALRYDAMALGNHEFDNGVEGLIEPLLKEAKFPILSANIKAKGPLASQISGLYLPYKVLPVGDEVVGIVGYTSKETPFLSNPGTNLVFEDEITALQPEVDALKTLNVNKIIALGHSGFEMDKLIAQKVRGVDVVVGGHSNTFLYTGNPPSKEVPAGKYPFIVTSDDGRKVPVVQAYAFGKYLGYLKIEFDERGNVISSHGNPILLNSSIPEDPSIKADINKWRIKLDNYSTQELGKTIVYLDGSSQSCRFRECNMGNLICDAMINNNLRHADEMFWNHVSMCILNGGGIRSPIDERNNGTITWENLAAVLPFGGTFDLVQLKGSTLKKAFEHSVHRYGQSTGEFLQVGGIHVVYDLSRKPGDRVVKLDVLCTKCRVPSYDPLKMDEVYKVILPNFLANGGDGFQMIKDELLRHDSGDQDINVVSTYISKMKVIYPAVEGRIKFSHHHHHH
Protocol: as §1

B1: MEDI9447 (antibody, human IgG1, lambda, V domains shown)
VH: EVQLLESGGGLVQPGGSLRLSCAASGFTFSSYAYSWVRQAPGKGLEWVSAISGSGGRTYYADSVKGRFTISRDNSKNTLYLQMNSLRAEDTAVYYCARLGYGRVDEWGRGTLVTVSS
VL: QSVLTQPPSASGTPGQRVTISCSGSLSNIGRNPVNWYQQLPGTAPKLLIYLDNLRLSGVPDRFSGSKSGTSASLAISGLQSEDEADYYCATWDDSHPGWTFGGGTKLTVLG
notes: Human IgG1-TM (L234F, L235E, P331S), lambda light chain; also called clone 10.3 antibody; 73combo3
- Kd [1]: 1.7 pM
- koff [1]: 8.1e-06 s⁻¹
- kon [1]: 4.75e+06 M⁻¹ s⁻¹
- koff [2]: 9.18e-05 s⁻¹
- kon [2]: 1.13e+06 M⁻¹ s⁻¹
- koff [3]: 0.000154 s⁻¹
- kon [3]: 3.45e+06 M⁻¹ s⁻¹
